Measurements as given in the supplement of paper PMC10567573.

B1: CDS2 (parent)
chain: IHSIALSTFASLIGPFGGFFASGF

Variants of: B1
Assay: protein stability index of a GFP-peptide fusion (GPS, HEK-293T) (PSI 1-6); higher = more stable
Settings: c terminus: a fixed tail appended
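Note: lentivirally expressed fusions sorted by FACS into six bins by GFP to DsRed ratio, PSI derived from sequencing read proportions per bin multiplied by bin number.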

Variant | protein stability index
IHSIVLSTFASLIGPFGGFFASGF [A5V] | 1.84
IHSILLSTFASLIGPFGGFFASGF [A5L] | 2.15
IHSIELSTFASLIGPFGGFFASGF [A5E] | 3.98
IHSISLSTFASLIGPFGGFFASGF [A5S] | 3.12
IHSITLSTFASLIGPFGGFFASGF [A5T] | 2.36
IHSICLSTFASLIGPFGGFFASGF [A5C] | 3.88
IHSIMLSTFASLIGPFGGFFASGF [A5M] | 2.14
IHSINLSTFASLIGPFGGFFASGF [A5N] | 4.35
IHSIALSTPASLIGPFGGFFASGF [F9P] | 2.63
IHSIALSTEASLIGPFGGFFASGF [F9E] | 1.92
IHSIALSTSASLIGPFGGFFASGF [F9S] | 3.33
IHSIALSTCASLIGPFGGFFASGF [F9C] | 2.62
IHSIALSTGASLIGPFGGFFASGF [F9G] | 2.44
IHSIALSTNASLIGPFGGFFASGF [F9N] | 2.11
IHSIALSTDASLIGPFGGFFASGF [F9D] | 2.15
IHSIALSTYASLIGPFGGFFASGF [F9Y] | 1.62
IHSIALSTWASLIGPFGGFFASGF [F9W] | 2.81
IHSIALSTFASLIGPFGGKFASGF [F19K] | 3.44
IHSIALSTFASLIGPFGGTFASGF [F19T] | 3.17
IHSIALSTFASLIGPFGGAFASGF [F19A] | 2.87
IHSIALSTFASLIGPFGGGFASGF [F19G] | 3.81
IHSIALSTFASLIGPFGGSFASGF [F19S] | 2.78
IHSIALSTFASLIGPFGGNFASGF [F19N] | 3.42
IHSIALSTFASLIGPFGGIFASGF [F19I] | 2.97

Variant | protein stability index
IHSIALSTFASLIGPFGGMFASGF [F19M] | 4.02
IHSIALSTFASLIGPFGGHFASGF [F19H] | 2.47
IHSIALWTFASLIGPFGGFFASGF [S7W] | 3.82
IHSIALGTFASLIGPFGGFFASGF [S7G] | 3.09
IHSIALRTFASLIGPFGGFFASGF [S7R] | 3.4
IHSIALITFASLIGPFGGFFASGF [S7I] | 2.94
IHSIALSTFASLILPFGGFFASGF [G14L] | 3.66
IHSIALSTFASLIAPFGGFFASGF [G14A] | 3.37
IHSIALSTFASLINPFGGFFASGF [G14N] | 1.69
IHSIALSTFASLIDPFGGFFASGF [G14D] | 3.05
IHSIALSTFASLIYPFGGFFASGF [G14Y] | 2.64
IHSIALSTFASLIWPFGGFFASGF [G14W] | 1.74
IHSIALSTFASLICPFGGFFASGF [G14C] | 2.05
IHSIALSTFASLIKPFGGFFASGF [G14K] | 3.34
IHSIALSTFASLIGPFGGFFTSGF [A21T] | 3.65
IHSIALSTFASLIGPFGGFFRSGF [A21R] | 2.9
IHSIALSTFASLIGPFGGFFDSGF [A21D] | 4.2
IHSIALSTFASLIGPFGGFFSSGF [A21S] | 2.54
IHSIALSTFASLIGPFGGFFVSGF [A21V] | 2.06
IHSIALSTFASLIGPFGGFFWSGF [A21W] | 2.61
IHSIALSTFASLIGPFGGFFPSGF [A21P] | 2.4
IHSIALSQFASLIGPFGGFFASGF [T8Q] | 1.86
IHSIALSIFASLIGPFGGFFASGF [T8I] | 1.82
IHSIALSHFASLIGPFGGFFASGF [T8H] | 3.82

Variant | protein stability index
IHSIALSVFASLIGPFGGFFASGF [T8V] | 2.86
IHSIALSAFASLIGPFGGFFASGF [T8A] | 3.48
IHSIALSDFASLIGPFGGFFASGF [T8D] | 2.14
IHSIALSTFASLIGPFGGFFASDF [G23D] | 2.37
IHSIALSTFASLIGPFGGFFASLF [G23L] | 1.42
IHSIALSTFASLIGPFGGFFASIF [G23I] | 1.59
IHSIALSTFASLIGPFGGFFASQF [G23Q] | 2.79
IHSIALSTFASLIGPFGGFFASSF [G23S] | 1.46
IHSIALSTFASLIGPFGGFFASHF [G23H] | 2.2
IHSIALSTFASLIGPFGGFFASYF [G23Y] | 2.63
IHSIALSTFASLIGPFGGFFASNF [G23N] | 3.46
IHSIALSTFASLIGPFGGFFASEF [G23E] | 4.01
IYSIALSTFASLIGPFGGFFASGF [H2Y] | 3.65
IASIALSTFASLIGPFGGFFASGF [H2A] | 2.61
ITSIALSTFASLIGPFGGFFASGF [H2T] | 3.98
IKSIALSTFASLIGPFGGFFASGF [H2K] | 3.27
IPSIALSTFASLIGPFGGFFASGF [H2P] | 1.95
IESIALSTFASLIGPFGGFFASGF [H2E] | 1.8
IHSIALSTFASLIGPFVGFFASGF [G17V] | 2.5
IHSIALSTFASLIGPFLGFFASGF [G17L] | 3.48
IHSIALSTFASLIGPFMGFFASGF [G17M] | 2.12
IHSIALSTFASLIGPFEGFFASGF [G17E] | 3.13
IHSIALSTFASLIGPFYGFFASGF [G17Y] | 2.06
IHSIALSTFASLIGPFSGFFASGF [G17S] | 4.37

Variant | protein stability index
IHSIALSTFASLIGPFCGFFASGF [G17C] | 3.58
IHSIALSTFASLIGPFQGFFASGF [G17Q] | 2.83
IHSIALSTFASCIGPFGGFFASGF [L12C] | 2.74
IHSIALSTFASSIGPFGGFFASGF [L12S] | 3.23
IHSIALSTFASTIGPFGGFFASGF [L12T] | 1.49
IHSIALSTFASGIGPFGGFFASGF [L12G] | 3.36
IHSIALSTFASNIGPFGGFFASGF [L12N] | 2.95
IHSIALSTFASKIGPFGGFFASGF [L12K] | 3.15
IHSIALSTFASDIGPFGGFFASGF [L12D] | 3.44
IHSIALSTFASIIGPFGGFFASGF [L12I] | 2.76
IHSIALSTFASAIGPFGGFFASGF [L12A] | 2.82
IHSMALSTFASLIGPFGGFFASGF [I4M] | 2.86
IHSAALSTFASLIGPFGGFFASGF [I4A] | 2.44
IHSYALSTFASLIGPFGGFFASGF [I4Y] | 2.14
IHSTALSTFASLIGPFGGFFASGF [I4T] | 3.82
IHSHALSTFASLIGPFGGFFASGF [I4H] | 2.91
IHSIALSTFHSLIGPFGGFFASGF [A10H] | 2.85
IHSIALSTFWSLIGPFGGFFASGF [A10W] | 3.06
IHSIALSTFESLIGPFGGFFASGF [A10E] | 3.6
IHSIALSTFDSLIGPFGGFFASGF [A10D] | 3.54
IHSIALSTFCSLIGPFGGFFASGF [A10C] | 2.97
IHSIALSTFNSLIGPFGGFFASGF [A10N] | 1.6
